The results in this text go back to US20250345423A1 (IMUNEXUS THERAPEUTICS, published 2025).

The target of assay [1] is T1, CD80 expressed on Raji cells (UniProt P33681 35-288).
T1 construct: whole, on cells; also called Raji cells expressing CD80; B7-1 on Raji cells
T1 sequence (looked up): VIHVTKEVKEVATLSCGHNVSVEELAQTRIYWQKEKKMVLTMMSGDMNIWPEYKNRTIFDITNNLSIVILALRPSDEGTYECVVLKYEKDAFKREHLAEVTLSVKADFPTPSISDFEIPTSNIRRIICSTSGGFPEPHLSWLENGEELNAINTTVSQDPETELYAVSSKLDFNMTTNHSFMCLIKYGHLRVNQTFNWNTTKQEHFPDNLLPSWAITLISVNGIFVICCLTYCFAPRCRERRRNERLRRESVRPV
The experiment in a line: cell-to-cell binding: Raji cells on transfected bMSCs (summary of Example 2). How it is done: The required number of Raji cells (100,000 cells for each assay well) were centrifuged and resuspended in an appropriate volume of MSCBM (100 μl/100,000 cells), and the cell suspension was added to the wells containing bMSCs. Plates were incubated for 1 h at RT before the wells were very carefully washed 3× with D-PBS. In-cell ELISA assays were carried out two days after transfection with CTLA-4 BD plasmid DNA. The cell supernatant was aspirated, cells were washed 3× with 300 μl D-PBS (137 mM NaCl, 8.1 mM Na₂HPO₄, 2.68 mM KCl, 1.47 mM KH₂PO₄, 0.9 mM CaCl₂), 0.5 mM MgCl₂), and then fixed by adding 50 μl of a formaldehyde solution (4% in PBS, for example Santa Cruz Biotechnology, Cat. No. SANTS-281692). After 15-20 minutes of incubation at RT, the solution was aspirated and cells were washed 3× with 300 μl D-PBS-T (D-PBS containing 0.05% (w/V) Tween-20). Wells were blocked by incubating with 300 μl of 5% skim milk in D-PBS-T for 1 h at RT. The blocking buffer was aspirated and wells were washed with 3×300 μl D-PBS-T before adding 50 μl of the primary antibody diluted in D-PBS-T (see Table 1 for antibodies and their respective dilutions). […] After 5-15 minutes the reaction was stopped by adding 100 μl 1 M HCl, and absorbance at a wavelength of 450 nm was measured using a micro plate reader. […]

For assay [2], the target named is T2, human B7-1 (CD80) protein (Acro Biosystems, B71-H5259) (human, UniProt P33681 35-242).
T2 sequence (looked up): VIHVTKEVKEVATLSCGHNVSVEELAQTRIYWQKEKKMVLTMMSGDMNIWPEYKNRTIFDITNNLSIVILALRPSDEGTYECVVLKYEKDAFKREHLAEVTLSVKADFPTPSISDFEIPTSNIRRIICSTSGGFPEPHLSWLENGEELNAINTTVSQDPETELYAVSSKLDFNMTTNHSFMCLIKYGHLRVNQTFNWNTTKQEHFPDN
Briefly: in-cell ELISA on transfected bMSCs, anti-CD80 primary antibody, versus control transfection. How it is done: Cells were plated on a 96-well plate at a density of 10,000 cells per well. The in-cell ELISA was performed the following day.
All in-cell ELISA experiments were carried out in 96-well microtiter plates. For assays in which the primary antibody was directed against the ligand of the CTLA-4 binding domain, the supernatant of cells expressing the CTLA-4 BD was aspirated, replaced with medium containing the ligand (rhSOST (R&D systems 1406-ST-025/CF) or B7-1/CD80 protein (Acro Biosystems, B71-H5259) at varying concentrations, and incubated for 1 h at RT. For assays in which binding of B-lymphocytes to cells expressing the CTLA-4 binding domain was to be assessed, cells from a lymphoblast-like cell line (Raji cells) were used. The required number of Raji cells (100,000 cells for each assay well) were centrifuged and resuspended in an appropriate volume of MSCBM (100 μl/100,000 cells), and the cell suspension was added to the wells containing bMSCs. Plates were incubated for 1 h at RT before the wells were very carefully washed 3× with D-PBS. In-cell ELISA assays were carried out two days after transfection with CTLA-4 BD plasmid DNA. […]
On the technique in general: ELISA stands for enzyme-linked immunosorbent assay.

Assay [3] has as its target T3, human recombinant Sclerostin (rhSOST, R&D systems 1406-ST-025/CF) (human, UniProt Q9BQB4 24-213).
T3 sequence (looked up): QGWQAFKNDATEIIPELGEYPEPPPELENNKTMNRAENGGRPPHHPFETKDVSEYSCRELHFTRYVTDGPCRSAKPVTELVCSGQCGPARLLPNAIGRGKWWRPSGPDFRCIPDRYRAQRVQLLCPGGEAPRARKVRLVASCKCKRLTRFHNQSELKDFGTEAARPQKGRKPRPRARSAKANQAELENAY
Briefly: in-cell ELISA on transfected HEK293 cells, anti-SOST primary antibody, versus mock transfection. How it is done: The remainder of the protocol was identical for both cell types. One day before transfection, cells were plated on 96-well microtiter plates that had previously been coated with Poly-D-Lysine (PDL, Gibco, Cat. No. A38904-01) according to the manufacturer's instructions. The ideal cell density for subsequent transfection and in-cell ELISA was empirically determined to be 10,000 cells per well at time of seeding. The day after plating, cells were transfected using the Lipofectamine 3000 transfection kit (Invitrogen, Cat. No. L3000-008). The ideal amount of DNA and Lipofectamine per well was empirically determined to be 100 ng (HEK cells) or 200 ng (CHO cells) of DNA and 0.15 μl of Lipofectamine 3000. Transfections were performed according to the manufacturer's instructions.
All in-cell ELISA experiments were carried out in 96-well microtiter plates. […]

B1: BD_B7 (CTLA-4 binding domain directed against B7.1 (CD80)), displayed on the cell surface from the display vector (designed binder)
chain: KAMHVAQPAVVLASSRGIASFVCEYASPGKYTEVRVTVLRQADSQVTEVCAATYMTGNELTFLDDSICTGTSSGNQVNLTIQGLRAMDTGLYICKVELMYPPPYYLGIGNGTQIYVIDPEPSPDSNAGGGGSGGGGSGGGGSAEQKLISEEDLNAVGQDTQEVIVVPHSLPFKVVVISAILALVVLTIISLIILIMLWQKKPR
notes: also called CTLA-4 BD directed against B7-1
On to B1, for which the binding result in assay [1] and in assay [2] was “binds” throughout.

B2: BD_SOST (CTLA-4 binding domain directed against human sclerostin), displayed on the cell surface from the display vector (designed binder)
chain: KAMHVAQPAVVLASSRGIASFVCEYTVSWVDMEVRVTVLRQADSQVTEVCAATYWNGRWLTFLDDSICTGTSSGNQVNLTIQGLRAMDTGLYICKVQLDPSWGYYWQGYEGIGNGTQIYVIDPEPSPDSNAGGGGSGGGGSGGGGSAEQKLISEEDLNAVGQDTQEVIVVPHSLPFKVVVISAILALVVLTIISLIILIMLWQKKPR
For the molecule B2, in assay [3], the binding result is reported as “binds”.
